Measurements from PMC6101581.
Read-outs that look alike come from different tables or passages of the source.

Experiments:
RPA heterotrimer [1] = target: T1, RPA heterotrimer (UniProt P27694;P15927;P35244 1-616;1-270;1-121); assay: EMSA
RPA heterotrimer [2] = target: T1, RPA heterotrimer; assay: EMSA; remark: listed apart in the source
hUNG2 full-length [3] = target: T2, hUNG2 full-length (human, UniProt P13051 1-313); assay: fluorescence anisotropy
hUNG2 catalytic domain = hUNG2 catalytic domain (human, UniProt P13051 92-313); assay: fluorescence anisotropy
hUNG2 full-length [4] = target: T2, hUNG2 full-length; assay: fluorescence anisotropy; remark: listed apart in the source

T1 sequence (P27694 whole entry, chain 1 of 3): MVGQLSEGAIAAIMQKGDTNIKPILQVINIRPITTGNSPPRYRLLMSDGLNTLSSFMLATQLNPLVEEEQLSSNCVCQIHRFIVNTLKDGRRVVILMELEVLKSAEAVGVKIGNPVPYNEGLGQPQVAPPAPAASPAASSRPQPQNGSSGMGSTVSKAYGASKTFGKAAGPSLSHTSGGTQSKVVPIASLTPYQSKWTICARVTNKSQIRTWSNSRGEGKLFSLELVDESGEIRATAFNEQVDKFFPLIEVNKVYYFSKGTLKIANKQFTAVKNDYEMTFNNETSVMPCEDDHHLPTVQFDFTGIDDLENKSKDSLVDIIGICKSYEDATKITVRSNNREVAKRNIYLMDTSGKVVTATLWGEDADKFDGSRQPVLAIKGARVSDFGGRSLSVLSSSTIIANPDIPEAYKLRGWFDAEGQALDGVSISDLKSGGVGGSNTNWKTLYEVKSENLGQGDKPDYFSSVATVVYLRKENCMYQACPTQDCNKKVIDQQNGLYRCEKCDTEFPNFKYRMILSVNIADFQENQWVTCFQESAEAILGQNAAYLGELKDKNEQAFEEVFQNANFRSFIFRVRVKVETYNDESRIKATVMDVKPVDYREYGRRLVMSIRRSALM
T1 sequence (P15927 whole entry, chain 2 of 3): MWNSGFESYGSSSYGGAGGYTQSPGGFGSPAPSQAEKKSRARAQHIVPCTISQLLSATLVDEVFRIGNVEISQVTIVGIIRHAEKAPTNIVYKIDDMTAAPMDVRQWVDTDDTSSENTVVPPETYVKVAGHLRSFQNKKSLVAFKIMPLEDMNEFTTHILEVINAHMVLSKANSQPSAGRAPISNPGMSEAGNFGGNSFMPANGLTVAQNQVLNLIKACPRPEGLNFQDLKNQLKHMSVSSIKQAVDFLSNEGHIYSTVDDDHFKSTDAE
T1 sequence (P35244 whole entry, chain 3 of 3): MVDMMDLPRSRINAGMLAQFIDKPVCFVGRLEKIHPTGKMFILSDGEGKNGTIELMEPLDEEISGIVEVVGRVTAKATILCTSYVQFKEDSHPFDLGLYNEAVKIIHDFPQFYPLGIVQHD
T2 sequence (P13051 whole entry, the tested form may be a part): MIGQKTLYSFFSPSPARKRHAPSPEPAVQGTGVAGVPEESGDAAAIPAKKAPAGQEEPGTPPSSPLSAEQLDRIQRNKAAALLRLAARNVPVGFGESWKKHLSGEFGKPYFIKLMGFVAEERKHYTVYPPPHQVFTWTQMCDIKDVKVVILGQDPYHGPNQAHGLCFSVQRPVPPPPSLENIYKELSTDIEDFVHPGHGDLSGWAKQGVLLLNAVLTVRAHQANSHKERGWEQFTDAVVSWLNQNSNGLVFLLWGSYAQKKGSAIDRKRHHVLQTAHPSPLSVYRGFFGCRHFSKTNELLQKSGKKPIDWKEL
Chain of hUNG2 catalytic domain (P13051 92-313): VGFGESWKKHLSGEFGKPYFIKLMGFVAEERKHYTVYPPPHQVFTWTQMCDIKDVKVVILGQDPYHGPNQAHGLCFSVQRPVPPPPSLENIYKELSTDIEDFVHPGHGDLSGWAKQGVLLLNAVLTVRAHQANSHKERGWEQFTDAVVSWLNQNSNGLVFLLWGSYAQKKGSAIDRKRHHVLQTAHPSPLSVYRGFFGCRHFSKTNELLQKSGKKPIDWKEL

B1: 55 bp duplex U9/U33 with 32 nt 3' overhang (oligos 18/19) (mixed)
DNA 1: ACTGATCAGAGTCCACTTAGCTATCGATTCTCGTACGCCCTTAGCTATCGATTCACTGGTTATACCTCACTACCACAGGTCGAGCTA
DNA 2: TGAATCGAUAGCTAAGGGCGTACGAGAATCGAUAGCTAAGTGGACTCTGATCAGT
modifications: two deoxyuridines in strand 2
binding result (RPA heterotrimer [1]): binds

B2: 55 bp duplex U21/U45 with 32 nt 5' overhang (oligos 4/5) (mixed)
DNA 1: ATCGAGCTGGACACCATCACTCCATATTGGTCACTGCATGCTCTTCTTAGCTATCGATTCACCTGAGACCTTAGCTATCGATTCTCA
DNA 2: TGAGAATCGAUAGCTAAGGTCTCAGGTGAATCGAUAGCTAAGAAGAGCATGCAGT
modifications: two deoxyuridines in strand 2
binding result (RPA heterotrimer [2]): binds

B3: 55 bp duplex U9/U33 with 32 nt 5' overhang (oligos 9/10) (mixed)
DNA 1: ATCGAGCTGGACACCATCACTCCATATTGGTCACTTAGCTATCGATTCCCGCATGCTCTTAGCTATCGATTCACCTGAGACTAGTCA
DNA 2: TGACTAGTCTCAGGTGAATCGAUAGCTAAGAGCATGCGGGAATCGAUAGCTAAGT
modifications: two deoxyuridines in strand 2
binding result (RPA heterotrimer [2]): binds

B4: 29 nt ssDNA (oligo 14) (ssDNA)
DNA: CACGCGTGGCCCGGCAGTTATCCAGCACC
binding signal (hUNG2 full-length [3]): 3 fold higher affinity than N1 (29 bp dsDNA)

B5: 29 bp duplex (oligos 13/14) (dsDNA)
DNA 1: GGTGCTGGATAACTGCCGGGCCACGCGTG
DNA 2: CACGCGTGGCCCGGCAGTTATCCAGCACC
binding signal (hUNG2 catalytic domain): 3 fold lower affinity than full-length hUNG2

B6: 29 bp duplex with 29 nt 5' ssDNA overhang (oligos 15/16) (mixed)
DNA 1: CACGCGTGGCCCGGCAGTTATCCAGCACCACTTAGCTATCGATTCCCGCATGCTCTGA
DNA 2: TCAGAGCATGCGGGAATCGATAGCTAAGT
binding result (hUNG2 full-length [4]): binds
